Molecular target: T1, rhDLL4(重组人DLL4) (human, UniProt Q9NR61 27-524, limits assumed)
T1 construct: Immobilised on a CM5 chip for SPR and coated on 96-well plates for the MTT assay; also called 人DLL4抗原; DLL4抗原
Experiment: SPR, Biacore X100, rhDLL4 immobilised on CM5 chip, antibody injected at 0.098-12.5 nM

T1 sequence (Q9NR61 27-524 limits assumed): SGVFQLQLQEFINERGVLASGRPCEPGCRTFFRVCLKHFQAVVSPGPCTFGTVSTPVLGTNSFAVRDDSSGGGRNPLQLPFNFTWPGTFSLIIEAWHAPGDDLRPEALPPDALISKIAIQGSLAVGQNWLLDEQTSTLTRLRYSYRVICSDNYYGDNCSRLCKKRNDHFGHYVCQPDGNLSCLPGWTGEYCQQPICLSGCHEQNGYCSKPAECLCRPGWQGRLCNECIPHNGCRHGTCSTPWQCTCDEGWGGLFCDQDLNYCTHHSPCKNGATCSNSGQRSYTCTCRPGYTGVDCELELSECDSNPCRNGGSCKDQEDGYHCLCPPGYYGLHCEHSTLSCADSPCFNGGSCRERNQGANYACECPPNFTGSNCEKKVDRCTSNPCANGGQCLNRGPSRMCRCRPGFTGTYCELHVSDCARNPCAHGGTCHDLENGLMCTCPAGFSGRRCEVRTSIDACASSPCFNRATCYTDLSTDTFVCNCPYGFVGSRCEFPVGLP

B1: 抗人DLL4人源化抗体H3L2 (antibody, human IgG1, lambda, V domains shown)
VH: QVQLVQSGAEVKKPGSSVKVSCKASGYTFSGYWMQWIKQAPGQGLEWIGAIYPGDGDTRYTQKFKGRATLTADKSTSTAYMELSSLRSEDTAVYYCAGGNFFFDYWGQGTLVTVSS
VL: EIVITQSPDFQSVTPKEKVTITCSVSSSISSSYLHWYQQKPDQSPKPWIYGTSNLASGVPSRFSGSGSGTDYTLTINSLEAEDAATYYCQQWSSSPLTFGQGTKLEIKV
notes: also called 抗DLL4人源化抗体
Kd: 2.26 pM
